From patent US20260242478A1 (published 2026) come the findings set out here.

The target of assay [1] is T1, anti-CD28 scFv (VH - linker 1 - VL) (biotinylated (site not stated)). Briefly: phage ELISA; biotinylated anti-CD28 scFv on neutravidin plate, clonal phage supernatant, anti-M13 HRP detection.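 Note: before phage addition, wells were pre-incubated with blocking buffer plus soluble CD28 protein, or blocking buffer only, with no wash in between, signal reflects phage remaining bound after washing.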 Background: In an ELISA, binding on a coated surface is turned into a signal by an enzyme label.
For assay [2], the target named is T1, anti-CD28 scFv (VH - linker 1 - VL). Briefly: phage ELISA as above, wells pre-incubated with soluble CD28 as competitor.
Protocol: (§1) Clonal phage were harvested as crude supernatants and screened via standard enzyme linked immunosorbent assays (ELISAs). […] Prior to the addition of clonal phage, wells were incubated with blocking buffer and CD28 soluble protein or blocking buffer alone. Without washing or aspirating, clonal phage supernatants were then added to the wells and incubated for a short time. Wells were then washed followed by detection of bound phage using a horse radish peroxidase conjugated anti-M13 antibody.
In assay [3] the target is T2, Anti-CD28 scFv (VH - linker 1 - VL) (biotinylated (site not stated)). Briefly: phage binding ELISA on captured anti-CD28 scFv; wells pre-incubated with soluble CD28 protein (competitor).
The target in assay [4] is T2, Anti-CD28 scFv (VH - linker 1 - VL). Briefly: phage binding ELISA; biotinylated anti-CD28 scFv on neutravidin plate, clonal phage supernatant, anti-M13 HRP detection.
Protocol: as §1
Assay [5] concerns the target T3, anti-CD28 scFv (VH - linker 1 - VL) (biotinylated (site not given)).
T3 construct: Biotinylated scFv captured on neutravidin coated plates in the panning ELISA
Briefly: phage ELISA as above; wells pre-incubated with soluble CD28 as competitor.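 Note: crude clonal phage supernatants tested, with bound phage detected by HRP-conjugated anti-M13 antibody, and reference wells given blocking buffer without CD28.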

Where no end group is shown, it is not given here.

T1 sequence (scFv, as listed by the source): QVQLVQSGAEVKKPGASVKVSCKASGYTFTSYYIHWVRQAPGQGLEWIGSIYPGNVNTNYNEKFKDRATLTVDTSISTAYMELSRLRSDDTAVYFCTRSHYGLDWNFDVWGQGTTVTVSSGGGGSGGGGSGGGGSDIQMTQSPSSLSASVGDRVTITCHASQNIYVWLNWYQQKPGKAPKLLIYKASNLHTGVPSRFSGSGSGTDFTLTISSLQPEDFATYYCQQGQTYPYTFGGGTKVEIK
T3 sequence (scFv, as listed by the source): as above
T2 sequence (scFv, as listed by the source): as above

B1: Phage-173 (peptide)
peptide: MDWCPMNLWSECFN
With B1, in assay [1], the “CD28 scFv signal” value was 0.67. The “CD28 scFv signal in presence of CD28” value in assay [2] came to 0.124.

B2: Phage-51 clonal phage peptide (peptide, not shown: large carriers)
peptide: MDWCPMDLWDYCFN
modifications: cysteine pairing not given here; also: displayed on phage by fusion to pIII, linker and pIII sequence not given here
Regarding B2, the “CD28 scFv signal in presence of CD28” value in assay [3] is 0.107. For the same molecule, in assay [4], the “CD28 scFv signal” value came out at 1.64.

B3: Phage-175 (peptide)
peptide: MDWCPAYLWAECFS
B3: the “CD28 scFv signal” value in assay [1] was determined as 0.64. The “CD28 scFv signal in presence of CD28” value in assay [2] came out at 0.12.

B4: Phage-101 (peptide)
peptide: MDWCPRSLWHYCFA
As to B4, in assay [5], the “CD28 scFv signal in presence of CD28” value was determined as 0.338.

B5: Phage-53 clonal phage peptide (peptide, not shown: large carriers)
peptide: MDWCPMHLWNKCFN
modifications: cysteine pairing not given here; also: displayed on phage by fusion to pIII, linker and pIII sequence not given here
For the molecule B5, the “CD28 scFv signal in presence of CD28” value in assay [3] is 0.122. Besides, the “CD28 scFv signal” value in assay [4] worked out at 1.04.

B6: Phage-177 (peptide)
peptide: MDWCPVSLWDHCFN
As for B6, in assay [1], the “CD28 scFv signal” value is 0.616. Also, the “CD28 scFv signal in presence of CD28” value in assay [2] is 0.1.

B7: Phage-102 (peptide)
peptide: MDWCPRYLWAECFY
As for B7, the “CD28 scFv signal in presence of CD28” value in assay [5] was determined as 0.354.

B8: Phage-180 (peptide)
peptide: MHWCPRYLWDECFN
As to B8, in assay [1], the “CD28 scFv signal” value came to 0.55. Also, in assay [2], the “CD28 scFv signal in presence of CD28” value stood at 0.127.

B9: Phage-179 (peptide)
peptide: MDWCPWILWNECFN
Take B9: the “CD28 scFv signal” value in assay [1] came out at 0.581. The “CD28 scFv signal in presence of CD28” value in assay [2] came out at 0.137.

B10: Phage-65 clonal phage peptide (peptide, not shown: large carriers)
peptide: MDWCPMYLWNECFN
Consider B10, for which the “CD28 scFv signal in presence of CD28” value in assay [3] was 0.471. In addition, in assay [4], the “CD28 scFv signal” value worked out at 2.61.

B11: Phage-103 (peptide)
peptide: MDWCPRDLWHECFN
B11: the “CD28 scFv signal in presence of CD28” value in assay [5] was 0.218.

B12: Phage-106 (peptide)
peptide: MDWCPIYLWDECFN
Turning to B12, in assay [5], the “CD28 scFv signal in presence of CD28” value amounted to 0.215.

B13: Phage-107 (peptide)
peptide: MDWCPRDLWAECFN
Take B13: the “CD28 scFv signal in presence of CD28” value in assay [5] was found to be 0.207.

B14: Phage-57 clonal phage peptide (peptide, not shown: large carriers)
peptide: MDWCPRHRWVDCFY
As to B14, the “CD28 scFv signal in presence of CD28” value in assay [3] came to 0.11. For the same molecule, the “CD28 scFv signal” value in assay [4] stood at 0.478.

B15: Phage-40 clonal phage peptide (peptide, not shown: large carriers)
peptide: MDWCPIDMWDQCFN
Turning to B15, in assay [3], the “CD28 scFv signal in presence of CD28” value came to 0.297. Besides, the “CD28 scFv signal” value in assay [4] was 2.66.

B16: Phage-55 clonal phage peptide (peptide, not shown: large carriers)
peptide: QDWCPRHMWSFCFH
modifications: cysteine pairing not given here; also: displayed on phage by fusion to pIII, linker and pIII sequence not given here
On to B16, for which the “CD28 scFv signal in presence of CD28” value in assay [3] was determined as 0.081. Further, the “CD28 scFv signal” value in assay [4] was 0.074.

B17: Phage-62 clonal phage peptide (peptide, not shown: large carriers)
peptide: MDWCPSYLWNECFF
Regarding B17, the “CD28 scFv signal in presence of CD28” value in assay [3] was found to be 0.133. Further, in assay [4], the “CD28 scFv signal” value amounted to 2.

B18: Phage-46 clonal phage peptide (peptide, not shown: large carriers)
peptide: MHWCPIDLWAECYA
modifications: cysteine pairing not given here; also: displayed on phage, fused to pIII
B18: the “CD28 scFv signal in presence of CD28” value in assay [3] turned out to be 0.225. Besides, the “CD28 scFv signal” value in assay [4] was found to be 2.28.

B19: Phage-56 clonal phage peptide (peptide, not shown: large carriers)
peptide: MHWCPMDQWSNCFN
Consider B19, for which, in assay [3], the “CD28 scFv signal in presence of CD28” value was determined as 0.084. In addition, the “CD28 scFv signal” value in assay [4] was determined as 0.515.

B20: Phage-54 clonal phage peptide (peptide, not shown: large carriers)
peptide: MNWCPRDMWYQCFN
modifications: cysteine pairing not given here; also: displayed on phage by fusion to pIII, linker and pIII sequence not given here
As to B20, the “CD28 scFv signal in presence of CD28” value in assay [3] is 0.177. The “CD28 scFv signal” value in assay [4] was determined as 1.95.

B21: Phage-41 clonal phage peptide (peptide, not shown: large carriers)
peptide: MAWCPRDKWSECFS
Consider B21, for which the “CD28 scFv signal in presence of CD28” value in assay [3] was determined as 0.147. In assay [4], the “CD28 scFv signal” value is 0.853.

B22: Phage-50 clonal phage peptide (peptide, not shown: large carriers)
peptide: MDWCPPYLWNVCFS
modifications: cysteine pairing not given here; also: displayed on phage by fusion to pIII, linker and pIII sequence not given here
Regarding B22, the “CD28 scFv signal in presence of CD28” value in assay [3] amounted to 0.1. Also, the “CD28 scFv signal” value in assay [4] is 1.64.

B23: Phage-61 clonal phage peptide (peptide, not shown: large carriers)
peptide: MVSCPTTMWNRCFN
As for B23, the “CD28 scFv signal in presence of CD28” value in assay [3] is 0.072. Further, the “CD28 scFv signal” value in assay [4] was found to be 1.33.

B24: Phage-48 clonal phage peptide (peptide, not shown: large carriers)
peptide: IDWCPRYLWDECYN
B24: the “CD28 scFv signal in presence of CD28” value in assay [3] turned out to be 0.153. Moreover, the “CD28 scFv signal” value in assay [4] was found to be 2.24.

B25: Phage-60 clonal phage peptide (peptide, not shown: large carriers)
peptide: MDWCPRTLWYLCFN
In the case of B25, the “CD28 scFv signal in presence of CD28” value in assay [3] was 1.2. The “CD28 scFv signal” value in assay [4] came out at 2.59.

B26: Phage-47 clonal phage peptide (peptide, not shown: large carriers)
peptide: MAWCPVYLWHECFN
Regarding B26, the “CD28 scFv signal in presence of CD28” value in assay [3] was found to be 0.351. Also, the “CD28 scFv signal” value in assay [4] amounted to 2.27.

B27: Phage-45 clonal phage peptide (peptide, not shown: large carriers)
peptide: MDWCPRPLWHECFS
On to B27, for which, in assay [3], the “CD28 scFv signal in presence of CD28” value was found to be 0.121. Also, the “CD28 scFv signal” value in assay [4] turned out to be 2.35.

B28: Phage-172 (peptide)
peptide: MDWCPPYLWYECFA
For B28, in assay [1], the “CD28 scFv signal” value came to 0.692. In addition, the “CD28 scFv signal in presence of CD28” value in assay [2] worked out at 0.094.

B29: Phage-178 (peptide)
peptide: LDWCPRDLWHVCFF
For the molecule B29, the “CD28 scFv signal” value in assay [1] amounted to 0.61. In assay [2], the “CD28 scFv signal in presence of CD28” value amounted to 0.105.

B30: Phage-59 clonal phage peptide (peptide, not shown: large carriers)
peptide: MDWCPRDSWHLCFA
For the molecule B30, in assay [3], the “CD28 scFv signal in presence of CD28” value was found to be 0.147. Moreover, in assay [4], the “CD28 scFv signal” value was 2.45.

B31: Phage-58 clonal phage peptide (peptide, not shown: large carriers)
peptide: MHWCPIDRWADCFN
In the case of B31, the “CD28 scFv signal in presence of CD28” value in assay [3] was 0.077. The “CD28 scFv signal” value in assay [4] was found to be 0.287.

B32: Phage-49 clonal phage peptide (peptide, not shown: large carriers)
peptide: MSWCPIHLWNECFN
modifications: cysteine pairing not given here; also: displayed on phage by fusion to pIII, linker and pIII sequence not given here
Regarding B32, the “CD28 scFv signal in presence of CD28” value in assay [3] worked out at 0.284. In assay [4], the “CD28 scFv signal” value came out at 2.06.

B33: Phage-105 (peptide)
peptide: MDWCPRYLWNVCFN
For B33, the “CD28 scFv signal in presence of CD28” value in assay [5] was found to be 0.57.

B34: Phage-174 (peptide)
peptide: MDWCPKHLWNECFN
Consider B34, for which the “CD28 scFv signal” value in assay [1] amounted to 0.663. The “CD28 scFv signal in presence of CD28” value in assay [2] was 0.105.

B35: Phage-44 clonal phage peptide (peptide, not shown: large carriers)
peptide: MDWCPIALWAECFN
Take B35: in assay [3], the “CD28 scFv signal in presence of CD28” value is 0.224. For the same molecule, the “CD28 scFv signal” value in assay [4] worked out at 2.46.

B36: Phage-64 clonal phage peptide (peptide, not shown: large carriers)
peptide: MDWCPRALWAECFN
Take B36: the “CD28 scFv signal in presence of CD28” value in assay [3] came out at 0.339. The “CD28 scFv signal” value in assay [4] is 2.68.

B37: Phage-104 (peptide)
peptide: MDWCPRDLWDLCFF
Take B37: the “CD28 scFv signal in presence of CD28” value in assay [5] stood at 0.156.

B38: Phage-42 clonal phage peptide (peptide, not shown: large carriers)
peptide: MDWCPRHLWVHCFN
Turning to B38, the “CD28 scFv signal in presence of CD28” value in assay [3] came to 0.254. Also, in assay [4], the “CD28 scFv signal” value amounted to 2.5.

B39: Phage-176 (peptide)
peptide: MDWCPSDLWHECFH
For the molecule B39, in assay [1], the “CD28 scFv signal” value was found to be 0.629. The “CD28 scFv signal in presence of CD28” value in assay [2] was found to be 0.164.

B40: Phage-108 (peptide)
peptide: MDWCPRALWHECFT
Take B40: the “CD28 scFv signal in presence of CD28” value in assay [5] was 0.191.

B41: Phage-52 clonal phage peptide (peptide, not shown: large carriers)
peptide: MDWCPINLWDECFS
modifications: cysteine pairing not given here; also: displayed on phage by fusion to pIII, linker and pIII sequence not given here
As to B41, the “CD28 scFv signal in presence of CD28” value in assay [3] was found to be 0.096. Further, in assay [4], the “CD28 scFv signal” value turned out to be 1.5.
